Drawing on article PMC11099923, this text covers reduction of pulldown compared to WT α7nAChR and Kd for two substances.

For experiment [1], the target named is human α7nAChR deletion mutant Δ419-423, His-tagged (human) (UniProt P36544). In words: pull-down; His-tag α7nAChR (~3 μM) as bait mixed with strep-tag PICK1 PDZ (~10 μM), Ni-NTA resin, overnight at 4°C, 10 mM phosphate pH 7.8, 150 mM NaCl, 0.05% LDAO, two washes with 50 mM imidazole, elution with 500 mM imidazole, SDS-PAGE, band intensities.
Experiment [2] deals with human α7nAChR deletion mutant Δ428-432, His-tagged (human) (UniProt P36544). Described as above.
In the next experiment the target is α7nAChR (Homo sapiens) (UniProt P36544). The settings on record: cited from earlier work.

Turning to “PDZ domain of human PICK1 (Protein Interacting with C-kinase 1), strep-tagged (from UniProt Q9NRD5 19-110) (domain or fragment)”, the reduction of pulldown compared to WT α7nAChR in experiment [1] stood at 50%; in experiment [2], 85%.

As for PICK1 PDZ (from UniProt Q9NRD5), the Kd in the experiment with α7nAChR (Homo sapiens) was 3000 nM.

As usually defined, the Kd is a measure of binding affinity in units of concentration.
